B1: Homeobox protein SIX3 (Mus musculus), Q62233 (parent)
chain: MVFRSPLDLYSSHFLLPNFADSHHCSLLLASSGGGSGASGGGGGAGGGGGGNRAGGGGAGGAGGGSGGGGSRAPPEELSMFQLPTLNFSPEQVASVCETLEETGDIERLGRFLWSLPVAPGACEAINKHESILRARAVVAFHTGNFRDLYHILENHKFTKESHGKLQAMWLEAHYQEAEKLRGRPLGPVDKYRVRKKFPLPRTIWDGEQKTHCFKERTRSLLREWYLQDPYPNPSKKRELAQATGLTPTQVGNWFKNRRQRDRAAAAKNRLQHQAIGPSGMRSLAEPGCPTHGSAESPSTAASPTTSVSSLTERADTGTSILSVTSSDSECDV

The variants in the test derive from B1. The conditions noted are these: with tle4_mouse Tle4, Q62441.
Chain of tle4_mouse Tle4, Q62441 (Q62441 whole entry): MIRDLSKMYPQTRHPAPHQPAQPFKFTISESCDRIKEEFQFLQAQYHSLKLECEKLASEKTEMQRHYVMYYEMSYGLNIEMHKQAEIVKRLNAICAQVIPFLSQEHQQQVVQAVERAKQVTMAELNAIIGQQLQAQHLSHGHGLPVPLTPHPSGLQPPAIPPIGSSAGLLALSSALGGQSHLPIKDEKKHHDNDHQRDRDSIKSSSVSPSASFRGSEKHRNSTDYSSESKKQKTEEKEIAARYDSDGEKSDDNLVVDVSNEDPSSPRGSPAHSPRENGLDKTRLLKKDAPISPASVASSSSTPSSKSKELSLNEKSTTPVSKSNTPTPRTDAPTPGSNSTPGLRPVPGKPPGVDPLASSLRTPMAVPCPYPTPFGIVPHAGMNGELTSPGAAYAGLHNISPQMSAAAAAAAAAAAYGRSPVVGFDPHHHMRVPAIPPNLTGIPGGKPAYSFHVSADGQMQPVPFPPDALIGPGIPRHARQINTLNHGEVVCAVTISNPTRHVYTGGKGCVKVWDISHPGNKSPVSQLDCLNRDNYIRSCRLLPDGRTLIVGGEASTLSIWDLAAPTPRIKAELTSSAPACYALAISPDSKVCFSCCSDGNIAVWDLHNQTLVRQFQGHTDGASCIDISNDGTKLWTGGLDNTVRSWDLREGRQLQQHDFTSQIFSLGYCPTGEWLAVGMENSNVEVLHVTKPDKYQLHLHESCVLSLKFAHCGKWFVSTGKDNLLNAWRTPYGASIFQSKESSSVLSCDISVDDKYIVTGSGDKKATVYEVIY
Regarding F88E, the “effect of a mutation on the interaction” value is “decreasing interaction”.

The values are drawn from IntAct's records for PubMed 12050133.
